Assay results from patent US20240270821A1, “GIP/GLP1/GCG TRI-RECEPTOR AGONISTS AND USES THEREOF” (priority 2023, published 2024).
Starred links: 1 amine or outer side, 2 acyl side, 3 side chain; linkers in the order of their positions; H or OH if unused. Non-standard residues stand in square brackets, D forms with d. Groups on a side chain read outwards from the residue. *: point of attachment. C18 diacid = O=C(O)CCCCCCCCCCCCCCCCC(=O)*; αMePhe(2-F) = C[C@](N)(Cc1ccccc1F)C(=O)O; γGlu = O=C(O)[C@H](CCC(=O)[*:2])N[*:1]; αMe4Pal = C[C@](N)(Cc1ccncc1)C(=O)O; αMeY = C[C@](N)(Cc1ccc(O)cc1)C(=O)O; 4Pal = N[C@@H](Cc1ccncc1)C(=O)O; αMeL = CC(C)C[C@](C)(N)C(=O)O; Orn = NCCC[C@H](N)C(=O)O; AEEA = NCCOCCOCC(=O)O; Aib = CC(C)(N)C(=O)O

Experiments:
[1] = target: T1, hGIPR (Homo sapiens, UniProt P48546); assay: Functional cAMP activity in the presence of 1% HSA; type: cell-based; conditions: read-out: cAMP Rel EC50, hGIPR
T1 sequence (P48546 22-466): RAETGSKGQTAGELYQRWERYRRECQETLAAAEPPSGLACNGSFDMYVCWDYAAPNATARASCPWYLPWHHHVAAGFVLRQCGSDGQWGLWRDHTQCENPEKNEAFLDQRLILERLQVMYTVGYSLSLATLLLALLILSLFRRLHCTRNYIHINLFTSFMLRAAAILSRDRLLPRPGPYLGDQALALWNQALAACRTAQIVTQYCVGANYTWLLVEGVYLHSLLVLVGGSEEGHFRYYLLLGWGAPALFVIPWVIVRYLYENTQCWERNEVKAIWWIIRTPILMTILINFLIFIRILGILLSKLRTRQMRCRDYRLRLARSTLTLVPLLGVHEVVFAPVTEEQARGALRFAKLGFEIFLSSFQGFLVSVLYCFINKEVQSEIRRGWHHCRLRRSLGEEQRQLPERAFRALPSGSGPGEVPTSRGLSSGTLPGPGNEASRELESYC

[2] = target: T2, hGLP-1R (Homo sapiens, UniProt P43220); assay: Functional cAMP activity in the presence of 1% HSA; type: cell-based; conditions: read-out: cAMP Rel EC50, hGLP-1R
T2 sequence (P43220 24-463): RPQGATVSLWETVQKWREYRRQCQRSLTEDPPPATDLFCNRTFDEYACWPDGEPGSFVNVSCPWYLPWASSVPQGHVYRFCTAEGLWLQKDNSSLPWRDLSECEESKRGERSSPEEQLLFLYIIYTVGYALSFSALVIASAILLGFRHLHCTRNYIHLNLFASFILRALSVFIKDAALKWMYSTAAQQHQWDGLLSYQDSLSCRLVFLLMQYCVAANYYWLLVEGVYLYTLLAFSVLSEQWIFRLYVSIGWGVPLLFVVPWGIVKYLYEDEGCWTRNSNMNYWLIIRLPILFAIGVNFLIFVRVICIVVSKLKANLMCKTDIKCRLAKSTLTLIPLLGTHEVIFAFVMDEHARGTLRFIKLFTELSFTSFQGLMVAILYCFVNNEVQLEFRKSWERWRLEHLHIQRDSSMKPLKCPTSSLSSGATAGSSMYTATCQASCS

[3] = target: human GcgR (Homo sapiens, UniProt P47871); assay: Functional cAMP activity in the presence of 1% HSA; type: cell-based; conditions: read-out: cAMP Rel EC50, hGcgR
Sequence of human GcgR (P47871 26-477): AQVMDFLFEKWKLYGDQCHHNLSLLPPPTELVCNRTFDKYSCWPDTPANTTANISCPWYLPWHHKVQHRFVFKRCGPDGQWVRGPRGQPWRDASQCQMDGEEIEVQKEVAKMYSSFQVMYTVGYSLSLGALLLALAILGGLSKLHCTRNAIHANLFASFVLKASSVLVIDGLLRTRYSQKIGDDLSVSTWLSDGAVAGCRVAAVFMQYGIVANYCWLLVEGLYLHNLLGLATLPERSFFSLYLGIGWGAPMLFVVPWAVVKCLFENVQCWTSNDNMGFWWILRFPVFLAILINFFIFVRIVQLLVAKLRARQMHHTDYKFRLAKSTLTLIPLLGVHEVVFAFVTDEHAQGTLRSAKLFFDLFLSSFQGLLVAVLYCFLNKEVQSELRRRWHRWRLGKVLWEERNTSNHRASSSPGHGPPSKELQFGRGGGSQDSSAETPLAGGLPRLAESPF

[4] = target: T1, hGIPR; assay: Functional cAMP activation in the presence of 0.1% casein (no HSA); type: cell-based; conditions: in the presence of 0.1% casein (no HSA); geometric mean; read-out: Relative cAMP EC50, hGIPR;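 on Relative cAMP EC50, hGIPR: intracellular cAMP rise after 30 min at 37 °C read by HTRF against a standard curve, scaled between buffer alone (0%) and top control ligand concentration (100%), four-parameter fit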;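 on Relative cAMP EC50, hGLP-1R: intracellular cAMP rise after 30 min at 37 °C read by HTRF, normalized between buffer only (0%) and maximal control ligand (100%), four-parameter variable-slope fit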;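 on Relative cAMP EC50, hGcgR: intracellular cAMP rise after 30 min at 37 °C, read by HTRF against a cAMP standard curve, scaled from buffer only (0%) to maximal control ligand response (100%)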
[5] = target: T2, hGLP-1R; assay: as above; type: cell-based; conditions: in the presence of 0.1% casein (no HSA); geometric mean; read-out: Relative cAMP EC50, hGLP-1R
[6] = target: hGcgR (Homo sapiens, UniProt P47871); assay: as above; type: cell-based; conditions: in the presence of 0.1% casein (no HSA); geometric mean; read-out: Relative cAMP EC50, hGcgR;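 further: intracellular cAMP rise after 30 min at 37 °C, read by HTRF against a cAMP standard curve, scaled from buffer only (0%) to maximal control ligand response (100%)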
Sequence of hGcgR (P47871 26-477): as above

[7] = test system: Intestinal organoid from Göttingen minipig jejunum tissue, 2D monolayer; assay: Cell based in vitro permeability (Papp) assay; type: in vitro ADME
Protocol: Intestinal organoid from Göttingen minipig jejunum tissue and its 2D monolayer are generated using the protocol previously described ([…]-Thiele, […].; Wells, J. M., Optimized procedures for generating an enhanced, near physiological 2D culture system from porcine intestinal organoids. […] After 7 days of culture, organoids are dissociated into single cells by TrypLE (GIbco), and the single cell suspension is added in 24-well transparent transwell inserts (0.3 cm^2, Falcon, BD). […] Samples from the basal compartment are collected at 20 min in the presence of C10. Peptide concentrations in the apical and basal compartments are measured by LC/MS, and the apparent permeability coefficient (Papp) is calculated as previously described (Twarog, C.; Liu, K.; O'Brien, P. J.; Dawson, […] head-to-head Caco-2 assay comparison of the mechanisms of action of the intestinal permeation enhancers: SNAC and sodium caprate (C10).

[8] = target: T2, hGLP-1R; assay: cell-based or functional assay
[9] = target: T3, human GIP receptor (human) (UniProt P48546); assay: cell-based or functional assay
T3 sequence (looked up): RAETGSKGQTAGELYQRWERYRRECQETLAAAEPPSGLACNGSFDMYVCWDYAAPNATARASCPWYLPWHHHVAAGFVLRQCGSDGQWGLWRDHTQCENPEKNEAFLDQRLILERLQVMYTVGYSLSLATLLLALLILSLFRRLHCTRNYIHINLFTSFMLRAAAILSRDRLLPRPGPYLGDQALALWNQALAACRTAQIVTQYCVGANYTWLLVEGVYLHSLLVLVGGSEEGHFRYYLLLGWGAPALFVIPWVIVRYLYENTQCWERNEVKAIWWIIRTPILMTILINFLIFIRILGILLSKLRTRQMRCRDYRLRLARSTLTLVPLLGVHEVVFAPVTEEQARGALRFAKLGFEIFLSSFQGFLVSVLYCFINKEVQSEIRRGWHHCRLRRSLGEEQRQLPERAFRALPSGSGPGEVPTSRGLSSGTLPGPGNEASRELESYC

[10] = target: human GLP1-R (SNAP-GLP-1R expressed in HEK293 cells) (human) (UniProt P43220); assay: cell-based or functional assay
Sequence of human GLP1-R (SNAP-GLP-1R expressed in HEK293 cells) (human) (P43220 24-463): as the sequence (P43220 24-463) above

[11] = target: human glucagon receptor (human) (UniProt P47871); assay: cell-based or functional assay
Sequence of human glucagon receptor (human) (P47871 26-477): as the sequence (P47871 26-477) above

Row | Molecule | EC50 [1] | EC50 [2] | EC50 [3] | EC50 [4] | EC50 [5] | EC50 [6] | Relative Papp (Compared to internal standard) [7] | Relative cAMP EC50 [8] | cAMP Rel EC50 (in the presence of 1% HSA) [8] | Relative cAMP EC50 [9] | cAMP Rel EC50 (in the presence of 1% HSA) [9] | GLP1R Internalization EC50 [10] | Internalization % TOP [10] | Relative cAMP EC50 [11] | cAMP Rel EC50 (in the presence of 1% HSA) [11]
1 | H-Y[Aib]QGTFTSDFS[Orn][αMeL]LDKK([γGlu-γGlu-C18 diacid])AQ[Aib]AFIEYLLEGGPSSGAPPPGGS-NH2 [Example 198] | 38.8 nM | 761 nM | 1300 nM | 0.182 nM | 4.36 nM | 6.85 nM | 0.12 | – | – | – | – | – | – | – | –
2 | H-Y[Aib]QGTFTSD[4Pal]SQ[αMeL]LD[Orn]K([Glu-γGlu-C18 diacid])AQ[αMe4Pal]AFIEYLIAGGPSSGAPPPSGSEE-NH2 [Example 1033] | – | – | – | – | – | – | 0.14 | – | – | – | – | – | – | – | –
3 | H-Y[Aib]QGTFTSD[4Pal]S[Orn][αMeL]LDKK([AEEA-γGlu-C18 diacid])AQ[αMe4Pal]AFIEYLIE[Aib]GPSSGAPPPSGS-NH2 [Example 808] | 27.3 nM | 406 nM | 286 nM | 0.187 nM | 3.58 nM | 1.65 nM | 0.29 | – | – | – | – | – | – | – | –
4 | H-Y[Aib]QGT[αMePhe(2-F)]TSD[4Pal]SILLD[Orn]K([AEEA-γGlu-C18 diacid])AQ[αMe4Pal]EFI[dE][αMeY]LLEGGPSSGAPPPSGS-NH2 (C-terminus assumed) [Example 670] | – | – | – | – | – | – | 0.46 | – | – | – | – | – | – | – | –
5 | YXQGTFTSDFSKXLDKKAQXAFIEYLLAGAPSSGAPPPSEG (synthetic construct; SITE 2: note = 2-Aminoisobutyric Acid; SITE 13: note = alpha-methyl-leucine; SITE 17: note = Lysine is chemically modified through conjugation of the epsilon-amino group of the Lysine side chain with (2-[2-(2-Amino-ethoxy)-ethoxy]-acetyl)-(gamma-Glu)-CO-(CH2) 18-CO2H; SITE 20: n) [Example 24] | – | – | – | – | – | – | – | 3.09 nM | 447 nM | 0.308 nM | 102 nM | 79.9 nM | 71.9% | 9.66 nM | 1390 nM
6 | YXQGTFTSDFSKXLDKKAQXQFIEYLLAGGPSSGEPPPSEG (synthetic construct; SITE 2: note = 2-Aminoisobutyric Acid; SITE 13: note = alpha-methyl-leucine; SITE 17: note = Lysine is chemically modified through conjugation of the epsilon-amino group of the Lysine side chain with (2-[2-(2-Amino-ethoxy)-ethoxy]-acetyl)-(gamma-Glu)-CO-(CH2) 16-CO2H; SITE 20: n) [Example 26] | – | – | – | – | – | – | – | 3.44 nM | 623 nM | 0.2 nM | 35.4 nM | 96.1 nM | 75.6% | 4.82 nM | 980 nM
7 | YXQGTFTSDXSKXLDKKAQXAFIEYLLAGGPSSGEPPPSGE (synthetic construct; SITE 2: note = 2-Aminoisobutyric Acid; SITE 10: note = 3-(4-Pyridyl)-L-alanine; SITE 13: note = alpha-methyl-leucine; SITE 17: note = Lysine is chemically modified through conjugation of the epsilon-amino group of the Lysine side chain with (2-[2-(2-Amino-ethoxy)-ethoxy]-acetyl)) [Example 28] | – | – | – | – | – | – | – | 3.68 nM | 686 nM | 0.255 nM | 63.8 nM | 81.8 nM | 76.2% | 12.6 nM | 1550 nM
